# From publication PMC3345047 (Molecular Microbiology, 2012)
# B1: pro-PanD (uncleaved L-aspartate-alpha-decarboxylase) of Salmonella enterica (enzyme, S. enterica serovar Typhimurium LT2, UniProt P65662 1-126, looked up)
# chain: MIRTMLQGKLHRVKVTQADLHYEGSCAIDQDFLDASGILENEAIDIWNVTNGKRFSTYAIAAERGSRIISVNGAAAHCAEVGDIVIIASFVTMSDEEARTWRPKVAYFEGDNEMKRTAKAIPVQVA
# Biological target: the molecule itself
# Test: SEC
protein,measurement,value
B1,stoichiometry N,4
